Data set [1] deals with T1, T. guaymasensis ADH (Thermococcus guaymasensis, UniProt F8S123). Description: Kinetic parameters, alcohol oxidation with NADP+. It counts as biochemical. Conditions: co-substrate NADP^+ (0.4 mM). The method, then:
(§1) The purified enzyme (0.25 μg) initiated the enzyme assay. […] The protein concentrations of all samples were determined using the Bradford method and bovine serum albumin served as the standard protein (Bradford 1976).
(§2) Apparent values of Km and Vmax were calculated using the curve fittings of SigmaPlot (Systat Software Inc., San Jose, Calif., USA).

Data set [2] concerns the target T1, T. guaymasensis ADH. Description: Kinetic parameters, ketone reduction with NADPH. It counts as biochemical. The procedure:
as §1, §2

For data set [3] the following is noted: cited from earlier work.
Data set [4] concerns the target T1, T. guaymasensis ADH. The data set can be described thus: Stereoselective conversion between acetoin and 2,3-butanediol (chiral GC). It counts as biochemical. The procedure: All the reactions were carried out at 30° C. for 24 hours unless specified. After that, the reaction mixture (1 ml) was extracted with 1 ml ethyl acetate or dichloride methane with shaking on a Gyrotory water bath shaker model G76 (New Brunswick Scientific Co., INC., NJ, USA) at 350 rpm for 30 min (room temperature). The stereoselectivity of the purified enzyme was determined using the Shimadzu GC-14A gas chromatography equipped with a CP-Chirasil-Dex CB column (0.25 mm ID×25 m length, Varian Inc., Palo Alto, Calif., USA). The following GC operating conditions included the FID detector (250° C.) at a sensitivity range of 10 and helium as the carrier gas at a linear velocity of 40 cm s^−1. […] The reaction mixture after extraction (0.5 μl) was directly applied onto the injector (200° C.) for each assay. The peak areas were quantitated using specific external standards.

A short description of data set [5]: ADH specific activity (spectrophotometric enzyme assay). It counts as biochemical. Conditions: 80° C.; for Specific activity: standard assay. The procedure: as §1
The reaction was initiated by adding enzymes.

How the values of data set [6] were obtained:
The effect of pH on the enzyme activities was determined over a range of 5.5-11.4. The buffers (100 mM) used were phosphate (pH 5.5-8.0), EPPS (8.0-9.0), glycylglycine (9.0-9.7), and CAPS (9.7-11.4). The effect of the temperature on the enzyme activity was examined at temperatures from 30 to 95° C. […] Residual activity was assayed at various time intervals under the standard assay conditions. Substrate specificity was determined using primary and secondary alcohols (50 mM), diols and polyols (50 mM), or aldehydes and ketones (6 mM) under standard assay conditions.
(§3) The effect of the temperature on the enzyme activity was examined at temperatures from 30 to 95° C. The activities were measured using standard assay conditions. Enzyme thermostability was evaluated by incubating the enzyme in sealed serum bottle at 80° C. and 95° C. respectively, and measuring the residual activities at different time intervals under the standard assay conditions.

Data set [7] is described as follows: Oxygen sensitivity (residual activity after exposure to air). It counts as physicochemical. Conditions: for t1/2 upon exposure to the air: room temperature. The procedure:
The effect of oxygen on enzyme activity was investigated by exposing the enzyme samples in the air at room temperature and determining the residual activity after oxygen exposure. The exposure was performed in the presence or absence of DDT and SDT. The residual activities of each sample at different time intervals were tested parallelly under the standard assay conditions.

On data set [8], the source says:
Enzymes resistant to solvent inactivation are of great interest from scientific and practical points of view.
The source holds these as a separate data set.

Data set [9] can be described thus: Optimum pH of enzyme activity. In kind it is biochemical. The method, then:
(§4) The effect of pH on the enzyme activities was determined over a range of 5.5-11.4. The buffers (100 mM) used were phosphate (pH 5.5-8.0), EPPS (8.0-9.0), glycylglycine (9.0-9.7), and CAPS (9.7-11.4). The effect of the temperature on the enzyme activity was examined at temperatures from 30 to 95° C. Enzyme thermostability was determined by incubating the enzyme in sealed serum bottles at 80° C. and 95° C., respectively. Residual activity was assayed at various time intervals under the standard assay conditions. Substrate specificity was determined using primary and secondary alcohols (50 mM), diols and polyols (50 mM), or aldehydes and ketones (6 mM) under standard assay conditions.
All the catalytic properties of native and recombinant TgADH were determined using the in vitro enzyme assay described above. The optimal pH of ethanol-dependent oxidation of native and recombinant TgADHs was determined by testing and comparing the enzyme activity at a series of pHs. Standard enzyme assay at 80° C. were applied using a set of 100 mM buffers: HEPES (pH 6.5, 7.0, 7.5 and 8.0), EPPS (pH 8.0, 8.5, 8.8, 9.0), glycine (pH 9.0, 9.5, 10.0) and CAPS (pH 10.0, 10.5, 11.0). The optimal pH of acetaldehyde-dependent reduction of native and recombinant TgADH was measured between pH 5.5 and 9.5 using the following buffers (100 mM): citrate (pH 5.5 and 6.0), PIPES (pH 6.0, 6.5 and 7.0), HEPES (pH 7.0, 7.5 and 8.0), EPPS (pH 8.0, 8.5, and 9.0), and glycine (pH 9.0 and 9.5).

Data set [10] in a line: Temperature dependence of enzyme activity. In kind it is biochemical. The method, then:
as §4, §3

Values joined by “and” are separate entries in the source; they are usually repeats but may differ in a detail not shown here. Equal entries are not always repeated. Where two headings read alike, the source gives them in different places.

As a reminder, the kcat is the number of substrate molecules converted per active site and unit of time at saturation.

`C[C@H](O)[C@H](C)O` [(2S,3S)-(+)-2,3-butanediol]: in data set [1], the “Apparent Vmax” value amounted to 769 U mg^−1 and the kcat stood at 512 s⁻¹.

For the molecule “nicotinamide adenine dinucleotide phosphate [NADPH]”, the “Apparent Km for NADPH, times lower than for NADP^+” value in [2] is recorded as 40 times.

B1: T. brockii: T brockii ADH available at Sigma Aldrich, essentially T ehtanolicus ADH (protein, UniProt P14941 1-352, looked up)
NADP-dependent isopropanol …: MKGFAMLSIGKVGWIEKEKPAPGPFDAIVRPLAVAPCTSDIHTVFEGAIGERHNMILGHEAVGEVVEVGSEVKDFKPGDRVVVPAITPDWRTSEVQRGYHQHSGGMLAGWKFSNVKDGVFGEFFHVNDADMNLAHLPKEIPLEAAVMIPDMMTTGFHGAELADIELGATVAVLGIGPVGLMAVAGAKLRGAGRIIAVGSRPVCVDAAKYYGATDIVNYKDGPIESQIMNLTEGKGVDAAIIAGGNADIMATAVKIVKPGGTIANVNYFGEGEVLPVPRLEWGCGMAHKTIKGGLCPGGRLRMERLIDLVFYKRVDPSKLVTHVFRGFDNIEKAFMLMKDKPKDLIKPVVILA
Consider B1, for which the Thermostability in data set [3] (at 93.8° C.) is recorded as 60 min at. Further, in [3] (isopropanol), the Solvent tolerance was 64%.

B2: TgADH: alcohol dehydrogenase purified from Thermococcus guaymasensis, SEQ ID NO:4, homotetramer, zinc-containing, NADP^+-dependent (protein, listed as Thermococcus guaymasensis)
chain: SKMRGFAMVDFGKAEWIEKERPKPGPYDAIVKPIAVAPCTSDIHTVFEAAFPREMCEFPRILGHEAVGEVVEVGSHVKDFKPGDRVVVPAITPDWRTLDVQRGYHQHSGGMLAGWKFSNPLKEGGKDGVFAEYFHVNDADMNLAHLPDEIKPEVAVMATDMMTTGFHGAELADIPLGGTVAVIGIGPVGLMAVAGARLLGAGRIIAVGSRPVCVEAAKYYGATDIVNRREHPDIAGRILELTGGEGVDSVIIAGGNVDVMKTAVKIVKPGGTVANINYFGSGDYLPIPRIEWGQGMAHKTIKGGLCPGGRLRMERLLDLIKYGRVDPSRLITHKFKGFDKIPEALYLMKDKPKDLIKPVVIIEE
modifications: homotetramer, zinc-containing
As for B2, the “Chiral compound synthesis preference” value in data set [4] is reported as “R-configured”. Besides, the “Enzyme (specific) activity” value in data set [5] (2-butanol as assay substrate) worked out at 1149 U mg^−1. Moreover, the Specific activity in [5] is 1049 U/mg. In [6], the Thermostability worked out at 24 hr at 95 °C and the “t1/2 (thermostability)” value came to 70 h. In data set [6] (80° C. for 40 hours), this molecule yielded an Activity after incubation of 60%. For the same molecule, the “Activity after exposure to air (in words)” value in data set [7] (exposed to air for a week) was “lost activity”. Moreover, in [7], the “t1/2 upon exposure to the air” value amounted to 6 h. For the same molecule, the “t1/2 upon exposure to the air” value in data set [7] (listed as T. guaymasensis ADH) was “about 4 hours”. In addition, in data set [8], the “Enzyme activity remaining, of full activity” value is given as “about 40%”; the “Methanol concentration at which half of full activity remained” value is on record as “about 24 % (v/v)”; the “Methanol concentration up to which the enzyme was active” value is reported as “up to 40 % (v/v)”. Further, in [8] (methanol), the Solvent tolerance is listed as 24% methanol. Moreover, the “Enzyme activity retained (in words)” value in [8] (methanol up to 5% (v/v)) is on record as “almost its full activity”. Also, in data set [9], the “Optimal pH, acetaldehyde reduction” value came out at 7.5; the “Optimal pH, ethanol oxidation” value is 10.5; the “Optimal pH, formation of alcohols (2-butanone reduction)” value is 7.5; the “Optimal pH, oxidation of alcohols (2-butanol)” value is reported as 10.5. The Optimal temperature result in data set [10] (tested 30 to 95° C.) was “over 95 °C”.

B3: recombinant TgADH: recombinant wild-type TgADH polypeptide (SEQ ID NO: 8) expressed in E. coli BL21-codon plus RIL with vector pET30a (protein)
chain: MHHHHHHSSGLVPRGSGMKETAAAKFERQHMDSPDLGTDDDDKAMADIGSEFMSKMRGFAMVDFGKAEWIEKERPKPGPYDAIVKPIAVAPCTSDIHTVFEAAFPREMCEFPRILGHEAVGEVVEVGSHVKDFKPGDRVVVPAITPDWRTLDVQRGYHQHSGGMLAGWKFSNPLKEGGKDGVFAEYFHVNDADMNLAHLPDEIKPEVAVMATDMMTTGFHGAELADIPLGGTVAVIGIGPVGLMAVAGARLLGAGRIIAVGSRPVCVEAAKYYGATDIVNRREHPDIAGRILELTGGEGVDSVIIAGGNVDVMKTAVKIVKPGGTVANINYFGSGDYLPIPRIEWGQGMAHKTIKGGLCPGGRLRMERLLDLIKYGRVDPSRLITHKFKGFDKIPEALYLMKDKPKDLIKPVVIIEE
modifications: Wild-type with vector coding region
Turning to B3, in [5], the Specific activity is 1079 U/mg and 1073 U/mg. In addition, the Specific activity in [5] (listed as recombinant enzyme) was determined as 1073 U/mg. Further, in [6], the “t1/2 (thermostability)” value was “about 26 hours”. Besides, the “Enzyme activity after heat treatment of cell extract (in words)” value in [6] (60° C. for half an hour) is reported as “no loss”. Also, the “Residual activity after incubation” value in [6] (42 hours at 80° C.) was “more than 60%”. Besides, the “t1/2 upon exposure to the air” value in data set [7] is given as “about 4 hours”. In addition, in [9], the “Optimal pH, formation of alcohols (2-butanone reduction)” value came to 7.5 and the “Optimal pH, oxidation of alcohols (2-butanol)” value is 10.5. The “Highest activity in temperature dependence test” value in data set [10] (at 95° C.) was 1533 U/mg.
